In the supplement of paper PMC12764529:
± gives the half width of the 95% confidence interval.

Assays:
[1] = folding stability dG unfold from chymotrypsin proteolysis; higher = more stable
Summary of the method: (§1)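 Unfolding free energy was derived, per protease or combined, against a sequence-predicted unfolded-state K50 and a shared folded-state K50, starting from K50 inferred by Bayesian fitting of sequencing counts. Digestion with trypsin and chymotrypsin was carried out on designed mini-proteins under 80 residues without cysteine in a PA-tagged cDNA display construct. Only designs with AlphaFold2 dimer inter-PAE above 15 were kept.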

[2] = folding stability dG unfold (combined trypsin and chymotrypsin); higher = more stable
Summary of the method: as §1

[3] = folding stability dG unfold from trypsin proteolysis; higher = more stable
Summary of the method: as §1

Row | Sequence | folding stability dG unfold [1] | folding stability dG unfold [2] | folding stability dG unfold [3]
1 | SAGGSAGGSAGGSFKVTYFPGEKLLAVTFPDGSKKIFKIDDKGNPTIIAVIDPDKGKVLPSAGGSAGGSAGG [r7_659_TrMRF] | 2.622 ± 0.02 kcal/mol | 2.35 ± 0.051 kcal/mol | 1.86 ± 0.034 kcal/mol
2 | SAGGSAGGSAGGSGMTLPIPLSELTTEEIRELTKPDEDLVIKTEEDEPVVIPYGEIKPESAGGSAGGSAGGS [r4_382_JUSTAS] | -1.05 ± 0.3 kcal/mol | 0.204 ± 0.077 kcal/mol | 0.694 ± 0.07 kcal/mol
3 | SAGGSAGGSAGGSGMTLSVTVLEEKPERLPNGGTIITRTVRIPETGEVIEEVTYEPGALSAGGSAGGSAGGS [r4_94_JUSTAS] | 0.0529 ± 0.058 kcal/mol | -0.092 ± 0.085 kcal/mol | -0.594 ± 0.17 kcal/mol
4 | SAGGSAGGSAGGSGMTPIPLEVLERKVTEYDPKNGKITVEALAILPDGTPVKLKFTVELSAGGSAGGSAGGS [r4_184_JUSTAS] | 1.37 ± 0.18 kcal/mol | 1.37 ± 0.22 kcal/mol | 1.11 ± 0.042 kcal/mol
5 | SAGGSAGGSAGGSGPVPVTIKSVTTYPEKDVYKVETVPATPEPITITLSPEELSDVVILSAGGSAGGSAGGS [r4_51_JUSTAS] | -0.437 ± 0.2 kcal/mol | -0.561 ± 0.19 kcal/mol | -1.69 ± 0.57 kcal/mol
6 | SAGGSAGGSAGGSGSITITYSSDGDKYSATFTVPDGTVVTVPNMSVDEAKKVAEKFLKSSAGGSAGGSAGGS [r4_383_JUSTAS] | 1.08 ± 0.12 kcal/mol | 0.659 ± 0.095 kcal/mol | -0.389 ± 0.14 kcal/mol
7 | SAGGSAGGSAGGSGVSITTTLPVKTTVLQPFNTFENKLLLKEVEKTILTTVTLTLPPLLSAGGSAGGSAGGS [r4_326_JUSTAS] | -0.0828 ± 0.29 kcal/mol | 0.148 ± 0.21 kcal/mol | 0.316 ± 0.068 kcal/mol
8 | SAGGSAGGSAGGSIVVETKKNPGPERVVTVKLPDGTPLADVPVSPDEDPEEAVKRALELGSAGGSAGGSAGG [r7_444_JUSTAS] | 0.305 ± 0.037 kcal/mol | 0.386 ± 0.17 kcal/mol | 0.0908 ± 0.071 kcal/mol
9 | SAGGSAGGSAGGSKEIKVEVEEKDGKLTVTVTFPDGSKVEIEGMSAEEVEKLVKELAKKSAGGSAGGSAGGS [r4_383_TrROS_Hall] | 2.36 ± 0.1 kcal/mol | 2.06 ± 0.061 kcal/mol | 1.4 ± 0.061 kcal/mol
10 | SAGGSAGGSAGGSKIYKLKVNGSVEKLIENLKKAGFKVEILSVYYDPETKELYVLFKISSAGGSAGGSAGGS [r4_315_TrMRF] | 4.57 ± 0.068 kcal/mol | 4.32 ± 0.079 kcal/mol | 3.85 ± 0.1 kcal/mol
11 | SAGGSAGGSAGGSKKEKYYLVTRIEVEVNGKKYPLGSKLPKNLPPGAKIKIETRIVKLDSAGGSAGGSAGGS [r4_436_TrROS_Hall] | 1.58 ± 0.071 kcal/mol | 1.83 ± 0.25 kcal/mol | 2.35 ± 0.15 kcal/mol
12 | SAGGSAGGSAGGSKKKIKIYIENENGEKKTIEIEVEGDIDEIAKELAKKYNVKIVKIEPSAGGSAGGSAGGS [r4_412_TrROS_Hall] | 3.16 ± 0.081 kcal/mol | 3.05 ± 0.05 kcal/mol | 2.77 ± 0.11 kcal/mol
13 | SAGGSAGGSAGGSKKTIKVRIKIEVDGKTYEITVELPEEGMSLEELLKKFPNAKITEIESAGGSAGGSAGGS [r4_278_TrROS_Hall] | 3.08 ± 0.17 kcal/mol | 3.22 ± 0.23 kcal/mol | 3.15 ± 0.26 kcal/mol
14 | SAGGSAGGSAGGSKKYKAKIVSVEYDEETKEVTIKVKLENGEEKTITMSLEELKEIELPSAGGSAGGSAGGS [r4_51_TrROS_Hall] | 3.15 ± 0.033 kcal/mol | 2.77 ± 0.079 kcal/mol | 1.97 ± 0.081 kcal/mol
15 | SAGGSAGGSAGGSKLPEGAKITITKNEDGSYTLTVTFPNGEKVEITMSEDELKKLLEALSAGGSAGGSAGGS [r4_16_TrROS_Hall] | 3.64 ± 0.11 kcal/mol | 3.79 ± 0.14 kcal/mol | 3.84 ± 0.15 kcal/mol
16 | SAGGSAGGSAGGSKNKKIKLGPEVKIKVKIEAKLEGGYSSENGLPEFKLDVKLEIGEVESAGGSAGGSAGGS [r10_877_TrMRF] | 1.09 ± 0.13 kcal/mol | 0.94 ± 0.26 kcal/mol | 0.727 ± 0.068 kcal/mol
17 | SAGGSAGGSAGGSKPKKIKVETVTLEDGLTLQVVVNEDTKEKVIVLVPPSEEVTVLVEPSAGGSAGGSAGGS [r4_99_TrROS_Hall] | 1.11 ± 0.076 kcal/mol | 0.648 ± 0.15 kcal/mol | -0.249 ± 0.31 kcal/mol
18 | SAGGSAGGSAGGSKPKMYILKIKIKVEVKYDKETNEIVEEEIEIEIEIIEVKPGEKLELSAGGSAGGSAGGS [r4_175_TrROS_Hall] | 3.28 ± 0.092 kcal/mol | 2.52 ± 0.35 kcal/mol | 1.42 ± 0.13 kcal/mol
19 | SAGGSAGGSAGGSKTKAELFKVGDKLILATYHPDTGKVEIFYPDNSVETLPAEEAEKLFSAGGSAGGSAGGS [r10_1140_TrMRF] | 0.957 ± 0.13 kcal/mol | 1.03 ± 0.14 kcal/mol | 1.02 ± 0.052 kcal/mol
20 | SAGGSAGGSAGGSKTLTPEEIKKLLDEAKKKGYKTVKITVKNKNGKTYTFTIKIPKEDLSAGGSAGGSAGGS [r4_342_TrROS_Hall] | 3.13 ± 0.079 kcal/mol | 2.95 ± 0.23 kcal/mol | 2.76 ± 0.18 kcal/mol
21 | SAGGSAGGSAGGSLELTFLLEDGTLAKVRIELNEDGELSISVELFELPAPEPVEVRFYPESAGGSAGGSAGG [r7_79_TrROS_Hall] | 2.8 ± 0.084 kcal/mol | 2.42 ± 0.18 kcal/mol | 1.42 ± 0.051 kcal/mol

Row | Sequence | folding stability dG unfold [1] | folding stability dG unfold [2] | folding stability dG unfold [3]
22 | SAGGSAGGSAGGSLKVEVTLDPETNELTVRTTLTLPPPPPPPPTTTTTTTTTLAPGETASAGGSAGGSAGGS [r10_86_TrROS_Hall] | 0.776 ± 0.22 kcal/mol | 0.0927 ± 0.38 kcal/mol | -0.349 ± 0.43 kcal/mol
23 | SAGGSAGGSAGGSMELIPTPEDTVTVVETTPVAPTPNGTPVPATVTTTTLPKEEVEAAASAGGSAGGSAGGS [r4_238_JUSTAS] | 1.53 ± 0.03 kcal/mol | 2.1 ± 0.062 kcal/mol | 2.71 ± 0.057 kcal/mol
24 | SAGGSAGGSAGGSMIVEEDPVGPEKVTTVTLPEKDKLVTVTETFLPDGSVVTTTTPVPSSAGGSAGGSAGGS [r4_332_JUSTAS] | 2 ± 0.25 kcal/mol | 1.96 ± 0.13 kcal/mol | 1.8 ± 0.17 kcal/mol
25 | SAGGSAGGSAGGSMIVLRMSADEIKKLLPPGAKIKKIEYDEETDEVYVIIEFDKDGKIISAGGSAGGSAGGS [r4_435_TrROS_Hall] | 1.32 ± 0.092 kcal/mol | 1.49 ± 0.069 kcal/mol | 1.53 ± 0.028 kcal/mol
26 | SAGGSAGGSAGGSMKIELPEGAEITEIKKLPNGTYEMTIRVDGKELKIRFVDGKLVIVPSAGGSAGGSAGGS [r4_280_TrROS_Hall] | 3.51 ± 0.057 kcal/mol | 3.56 ± 0.077 kcal/mol | 3.62 ± 0.14 kcal/mol
27 | SAGGSAGGSAGGSMKITKTLIPETGLYKVTITLPGGKPVEIEAPPSSSLEEVKKKAEKLSAGGSAGGSAGGS [r4_205_JUSTAS] | -0.169 ± 0.26 kcal/mol | -0.145 ± 0.26 kcal/mol | -0.116 ± 0.12 kcal/mol
28 | SAGGSAGGSAGGSMKIYKITVKKEDSELEFYVSDDVPAEVAANILKALYPDVEVKIEEGSAGGSAGGSAGGS [r4_155_TrMRF] | 1.1 ± 0.1 kcal/mol | 1.11 ± 0.15 kcal/mol | 1.25 ± 0.048 kcal/mol
29 | SAGGSAGGSAGGSMKLNITVTLPDGTPITLTFPVDKIEEILKEAGLENISPELITKIEPISAGGSAGGSAGG [r7_745_JUSTAS] | 1.39 ± 0.026 kcal/mol | 1.37 ± 0.051 kcal/mol | 1.33 ± 0.034 kcal/mol
30 | SAGGSAGGSAGGSMKYITITETTEEEVLVLYYDPETGEPVREEKVLRTVTKTRTLPPDLKSAGGSAGGSAGG [r7_573_JUSTAS] | 0.434 ± 0.19 kcal/mol | 0.189 ± 0.14 kcal/mol | -0.236 ± 0.23 kcal/mol
31 | SAGGSAGGSAGGSMLVEKKTFKDPKTGKTYIEIVIKDENGNLLSVKILSTEDPEKIEKLLSAGGSAGGSAGG [r7_484_JUSTAS] | 2.55 ± 0.037 kcal/mol | 2.37 ± 0.15 kcal/mol | 2.15 ± 0.12 kcal/mol
32 | SAGGSAGGSAGGSMLVRFPDKDVLSDGSEAEAERLAEELAAAGRPVELEFISPEEAAARSAGGSAGGSAGGS [r4_131_JUSTAS] | -0.83 ± 0.32 kcal/mol | -0.424 ± 0.31 kcal/mol | -0.225 ± 0.21 kcal/mol
33 | SAGGSAGGSAGGSMPIVRIEVKHPDQKHTFFIPPDMPLEDIADELASQYPNVEVKIEPVSAGGSAGGSAGGS [r4_155_TrROS] | 1.33 ± 0.11 kcal/mol | 0.935 ± 0.21 kcal/mol | 0.355 ± 0.091 kcal/mol
34 | SAGGSAGGSAGGSMPTYRITVEVDGKKYTITVREGMSPEEIAKRLKELYPNLTVKIEPVSAGGSAGGSAGGS [r4_155_TrROS_Hall] | 4.07 ± 0.15 kcal/mol | 4.04 ± 0.13 kcal/mol | 3.75 ± 0.13 kcal/mol
35 | SAGGSAGGSAGGSMSSTVTTTLVEVGPPNGKRVLVRRTTTTFPDGSVTTTVTVLSTTIASAGGSAGGSAGGS [r4_496_JUSTAS] | 2.61 ± 0.033 kcal/mol | 2.37 ± 0.063 kcal/mol | 1.84 ± 0.027 kcal/mol
36 | SAGGSAGGSAGGSMSTVFVSTLTLPDPSGLSTVLTTTVEIDPEGNAHPVTSTEEVSAAASAGGSAGGSAGGS [r4_80_JUSTAS] | 0.33 ± 0.089 kcal/mol | 0.652 ± 0.079 kcal/mol | 0.716 ± 0.022 kcal/mol
37 | SAGGSAGGSAGGSMTLKVTLTPPSGEVVEFEITEEELDKLKEELPEDWSISTEPIPELESAGGSAGGSAGGS [r4_63_JUSTAS] | 2.132 ± 0.016 kcal/mol | 2.29 ± 0.051 kcal/mol | 2.43 ± 0.07 kcal/mol
38 | SAGGSAGGSAGGSMVTLTVEKTFTSLLKTPESELIPVTSTVTEEVTIPESEATEELIKELSAGGSAGGSAGG [r7_777_JUSTAS] | -0.0189 ± 0.23 kcal/mol | 0.399 ± 0.2 kcal/mol | 0.388 ± 0.054 kcal/mol
39 | SAGGSAGGSAGGSMVVEYDPETGVRTTTVALPSDSVEVTTEKIDPATGEVVETVTELAASAGGSAGGSAGGS [r4_415_JUSTAS] | 0.634 ± 0.048 kcal/mol | 0.358 ± 0.086 kcal/mol | -0.105 ± 0.027 kcal/mol
40 | SAGGSAGGSAGGSMYIKIPGEPGDLREVVIEGKKVKVTPDANNPDKVTYTLPDGTKIALSAGGSAGGSAGGS [r4_488_JUSTAS] | 0.957 ± 0.14 kcal/mol | 0.638 ± 0.073 kcal/mol | 0.117 ± 0.064 kcal/mol
41 | SAGGSAGGSAGGSMYTLLSTENRPDPNSSKPVTTKTYKLPDGSTVVVTEYPDSVEEKPLVSAGGSAGGSAGG [r7_479_JUSTAS] | -0.122 ± 0.63 kcal/mol | 0.182 ± 0.25 kcal/mol | -0.00111 ± 0.087 kcal/mol
42 | SAGGSAGGSAGGSNPVDIVEILSYDPEKNTYTFLVKLPDGSTKTITVPGLSVEEIKKELSAGGSAGGSAGGS [r4_357_JUSTAS] | 3.276 ± 0.029 kcal/mol | 2.86 ± 0.085 kcal/mol | 1.57 ± 0.083 kcal/mol
